# Laboratory results taken from the Human Domainome abundance scans (Beltran et al. 2025).
# ± gives the uncertainty stated by the source.
# B1: PMS1 protein homolog 1, residues 572 to 637; numbered along this chain, P54277 (parent)
# chain: KKPMSASALFVQDHRPQFLIENPKTSLEDATLQIEELWKTLSEEEKLKYEEKATKDLERYNSQMKR
# Variants of: B1
# Experiment: abundance fitness (aPCA) (normalised: wild type 0, dead -1); higher = more abundant; growth selection in yeast, the domain comes from the species named
# Settings: Homo sapiens
row,Variant,abundance fitness
1,KKWMSASALFVQDHRPQFLIENPKTSLEDATLQIEELWKTLSEEEKLKYEEKATKDLERYNSQMKR [P3W],-0.545 ± 0.29
2,KKPMSASALFVQDHRPQFLIENPKTSLEDATLQIEELWKTLVEEEKLKYEEKATKDLERYNSQMKR [S42V],-0.56 ± 0.067
3,KKPMSASALFVQDHRPQFLIENPKTSLEDATLQIEELWKTLKEEEKLKYEEKATKDLERYNSQMKR [S42K],-0.072 ± 0.073
4,KKPMSASALFVQDHRPQFLIENPKTSLEDATLQIEELWKTLREEEKLKYEEKATKDLERYNSQMKR [S42R],-0.24 ± 0.051
5,KKPMSASALFVQDHRPQFLIENPKTSLEDATLQIEELWKTLNEEEKLKYEEKATKDLERYNSQMKR [S42N],-0.135 ± 0.21
6,KKPMSASALFVQDHRPQFLIENPKTSLEDATLQISELWKTLSEEEKLKYEEKATKDLERYNSQMKR [E35S],-0.189 ± 0.1
7,KKPMSASALFVQDHRPQFLIENPKTSLEDATLQIMELWKTLSEEEKLKYEEKATKDLERYNSQMKR [E35M],-0.038 ± 0.14
8,KHPMSASALFVQDHRPQFLIENPKTSLEDATLQIEELWKTLSEEEKLKYEEKATKDLERYNSQMKR [K2H],0.115 ± 0.46
9,KPPMSASALFVQDHRPQFLIENPKTSLEDATLQIEELWKTLSEEEKLKYEEKATKDLERYNSQMKR [K2P],-0.201 ± 0.23
10,KKPMSASALFVQDHRPQFLIENPKTSLEDAGLQIEELWKTLSEEEKLKYEEKATKDLERYNSQMKR [T31G],-0.321 ± 0.14
11,KKPMSASALFVQDHRPQFLIENPKTSLEDAFLQIEELWKTLSEEEKLKYEEKATKDLERYNSQMKR [T31F],-0.325 ± 0.44
12,KKPMSASVLFVQDHRPQFLIENPKTSLEDATLQIEELWKTLSEEEKLKYEEKATKDLERYNSQMKR [A8V],-0.457 ± 0.15
13,KKPMSASALFVQDHRPQFLIENPKTSLEDATLQIEELWKTLSEEEHLKYEEKATKDLERYNSQMKR [K46H],-0.353 ± 0.08
14,KKPMSASALFVQDHRPQFLIENPKTSLEDATLQIEELWKTLSEEEMLKYEEKATKDLERYNSQMKR [K46M],-0.508 ± 0.075
15,KKPMSASALFVQDHRPQFLIENPKTSLEDVTLQIEELWKTLSEEEKLKYEEKATKDLERYNSQMKR [A30V],-0.29 ± 0.17
16,KKPMSASALFVQDHRPQFLIENPKTSLEDTTLQIEELWKTLSEEEKLKYEEKATKDLERYNSQMKR [A30T],-0.668 ± 0.25
17,KKPMSASALFVQDHRPQFLIENPKTSLEDRTLQIEELWKTLSEEEKLKYEEKATKDLERYNSQMKR [A30R],-0.666 ± 0.15
18,KKPMSASALFVQDHRPQFLIENPKTSLEDATLQIEELEKTLSEEEKLKYEEKATKDLERYNSQMKR [W38E],-0.135 ± 0.13
19,KKPMSASALFVQDHRPQFLIENPKTSLEDATLQIEELHKTLSEEEKLKYEEKATKDLERYNSQMKR [W38H],0.034 ± 0.26
20,KKPMSASALFVQDHRPQFLIENPKTSLEDATLQIEELWKTLSCEEKLKYEEKATKDLERYNSQMKR [E43C],-0.102 ± 0.073
21,KKPMSASALFVQDHRPQFLIENPKTSLEDATLQIEELWKTLSWEEKLKYEEKATKDLERYNSQMKR [E43W],-0.046 ± 0.065

row,Variant,abundance fitness
1,KKPMMASALFVQDHRPQFLIENPKTSLEDATLQIEELWKTLSEEEKLKYEEKATKDLERYNSQMKR [S5M],-0.411 ± 0.13
2,KKPMTASALFVQDHRPQFLIENPKTSLEDATLQIEELWKTLSEEEKLKYEEKATKDLERYNSQMKR [S5T],0.095 ± 0.077
3,KKPMSASALFVQDHRPQFLIENPKTSLEDATLQIEELWKTLSEEEKLKYEEKSTKDLERYNSQMKR [A53S],-0.121 ± 0.068
4,KKPMSASALFVQDHRPQFLIENPKTSLEDATLQIEELWKTLSEEEKLKYEEKFTKDLERYNSQMKR [A53F],-0.212 ± 0.12
5,KKPMSASALFVQDHRPQFLIENPKTSLEDATLQIEELWKTLSEEEKLKYEEKYTKDLERYNSQMKR [A53Y],-0.22 ± 0.089
6,KKPMSASALFVQDHRPQFLIENPKTALEDATLQIEELWKTLSEEEKLKYEEKATKDLERYNSQMKR [S26A],-0.229 ± 0.063
7,KKPMSASALFVQDHRPQFLIENPKTMLEDATLQIEELWKTLSEEEKLKYEEKATKDLERYNSQMKR [S26M],-0.482 ± 0.067
8,KKPMSASALFVQDHRPQFLIENPKTSLEDATLQIEELWKTLSEEEKLPYEEKATKDLERYNSQMKR [K48P],-0.09 ± 0.1
9,KKPMSASALFVQDHRPQFLIENPKTSLEDATLQIEELWKTLSEEEKLMYEEKATKDLERYNSQMKR [K48M],-0.115 ± 0.081
10,KKPMSASALFVQDHRPQFLIENPKTSLEDATLQIEELWKTLSEEEKLIYEEKATKDLERYNSQMKR [K48I],-0.309 ± 0.15
11,KKPMSASALFVQDHRPQFLIENPKTSLEDATLQIEELWKTLSEEEKLWYEEKATKDLERYNSQMKR [K48W],-0.187 ± 0.11
12,KKPMSASALFVQDHRPQFLIENPKTSLEDATLQIEELWKTLSEEEKLKYETKATKDLERYNSQMKR [E51T],-0.057 ± 0.058
13,KKPMSASALFVQDHRPQFLIENPKTSLEDATLQIEELWKTLSEEEKLKYEYKATKDLERYNSQMKR [E51Y],-0.513 ± 0.11
14,KKPMSASALFVQDHRPQFLIENPKTSLEDATLQIEELWKTLSEEEKLKYEAKATKDLERYNSQMKR [E51A],-0.088 ± 0.054
15,KKPMSASAFFVQDHRPQFLIENPKTSLEDATLQIEELWKTLSEEEKLKYEEKATKDLERYNSQMKR [L9F],-0.131 ± 0.14
16,KKPMSASALFVQDHRPQFLIENPKTSLEDATLQIEELWKTLSEEEKLKYEEKATWDLERYNSQMKR [K55W],-0.16 ± 0.089
17,KKPMSASALFVQDHRPQFLIENPKTSLEDATLQIEELWKTLSEEEKLKYEEKATIDLERYNSQMKR [K55I],-0.001 ± 0.094
18,KKPMSASALFVQDHRCQFLIENPKTSLEDATLQIEELWKTLSEEEKLKYEEKATKDLERYNSQMKR [P16C],-0.357 ± 0.11
19,KKPMSASALFVQDHRKQFLIENPKTSLEDATLQIEELWKTLSEEEKLKYEEKATKDLERYNSQMKR [P16K],-0.17 ± 0.14
20,KKPMSASALFVQDHNPQFLIENPKTSLEDATLQIEELWKTLSEEEKLKYEEKATKDLERYNSQMKR [R15N],-0.769 ± 0.23
